B1: SEQ ID NO: 125: type III polyketide synthase from Hydrangea macrophylla (protein, listed as Hydrangea macrophylla)
chain: MATKSVAVEEMCKAQKAGGPATILAIGTAVPSNCYYQSEYPDFYFRVTKSDHLTDLKSKFKRMCERSSIKKRYMHLTEEILEENPNMCTFAAPSIDGRQDIVVKEIPKLAKEAASKAIKEWGQPKSNITHLVFCTTSGVDMPGCDYQLTRLLGLRPSIKRLMMYQQGCHAGGTGLRLAKDLAENNKGARVLVVCSEMTVINFRGPSEAHMDSLVGQSLFGDGASAVIVGSDPDLSTEHPLYQIMSASQIIVADSEGAIDGHLRQEGLTFHLRKDVPSLVSDNIENTLVEAFTPILMDSIDSIIDWNSIFWIAHPGGPAILNQVQAKVGLKEEKLRVSRHILSEYGNMSSACVFFIMDEMRKRSMEEGKGTTGEGLEWGVLFGFGPGFTVETIVLHSVPI
B2: SEQ ID NO: 139: plant type III polyketide synthase (PKS) (protein, listed as Piper methysticum)
chain: MSKMVEEHWAAQRARGPATVLAIGTANPPNVLYQADYPDFYFRVTKSEHMTQLKEKFKRICDKSAIRKRHLHLTEELLEKNPNICAHMAPSLDARQDIAVVEVPKLAKEAATKAIKEWGRPKSDITHLIFCTTCGVDMPGADYQLTTLLGLRPTVRRTMLYQQGCFAGGTVLRHAKDFAENNRGARVLAVCSEFTVMNFSGPSEAHLDSMVGMALFGDGASAVIVGADPDFAIERPLFQLVSTTQTIVPDSDGAIKCHLKEVGLTLHLVKNVPDLISNNMDKILEEAFAPLGIRDWNSIFWTAHPGGAAILDQLEAKLGLNKEKLKTTRTVLREYGNMSSACVCFVLDEMRRSSLEEGKTTSGEGLEWGILLGFGPGLTVETVVLRSVPISTAN
B3: SEQ ID NO: 129: plant type III polyketide synthase (PKS) (protein, listed as Polygonum cuspidatum)
chain: MAPAVADIRKAQRAEGPATVLAIGTATPPNCVYQKDYPDYYFRVTNSDHMTDLKEKFRRMCEKSNIEKRYMYLTEEILKENPNMCSYMQTSSLDTRQDMVVSEVPRLGKEAAQKAIKEWGQPKSKITHVIMCTTSGVDMPGADYQLTKLLGLHPSVKRFMMYQQGCFAGGTVLRLAKDLAENNRGARVLVVCSEITAICFRGPTDTHPDSMVGQALFGDGSGAVIIGADPDLSIEKPIFELVWTAQTILPDSEGAIDGHLREVGLTFHLLKDVPGLISKNIEKNLTEAFSPLNVSDWNSLFWIAHPGGPAILDQVETKLGLKEEKLKATRQVLNDYGNMSSACVLFIMDEMRKKSVENGHATTGEGLEWGVLFGFGPGLTVETVVLHSVPVAN
B4: SEQ ID NO: 121: type III polyketide synthase PKS2 from Aquilaria sinensis (protein, listed as Aquilaria sinensis)
chain: MSQAIADNAYRHHLKRAPTPGKATVLALGKAFPKQVIPQENLVEGYIRDTKCEDVSIKEKLERLCKTTTVKTRYTVMSKEILDNYPELVTEGSPTIRQRLEIANPAVVEMAKEASLACIKQWGRPAGDITHIVYVSSSEIRLPGGDLYLANELGLKNDINRIMLYFLGCYGGVTGLRVAKDIAENNPGSRILLTTSETTILGFRPPNKSRPYDLVGAALFGDGAAAVIIGANPEIGRESPFMELNFALQQFLPGTHGVIDGRLSEEGINFKLGRDLPQKIEDNIEDFCRKLMIKADGDLKEFNELFWAVHPGGPAILNRLESILDLKNGKLECSRRALMDYGNVSSNTIFYVMEYMREELKREGSEEWGLALAFGPGITFEGILLRSL
B5: SEQ ID NO: 131: plant type III polyketide synthase (PKS) (protein)
chain: MATEEMKKLATVMAIGTANPPNCYYQADFPDFYFRVTNSDHLINLKQKFKRLCENSRIEKRYLHVTEEILKENPNIAAYEATSLNVRHKMQVKGVAELGKEAALKAIKEWGQPKSKITHLIVCCSAGVDMPGADYQLTKLLDLDPSVKRFMFYHLGCYAGGTVLRLAKDIAENNKGARVLIVCSEMTTTCFRGPSETHLDSMIGQAILGDGAAAVIVGADPDLTVERPIFELVSTAQTIVPESHGAIEGHLLESGLSFHLYKTVPTLISNNIKTCLSDAFTPLNISDWNSLFWIAHPGGPAILDQVTAKVGLEKEKLKVTRQVLKDYGNMSSATVFFIMDEMRKKSLENGQATTGEGLEWGVLFGFGPGITVETVVLRSVPVIS
modifications: Amino acid sequence of the mutant L132S PKS from Rheum palmatum, optimized for expression in Nicotiana benthamiana
B6: SEQ ID NO: 119: type III polyketide synthase PKS1 from Aquilaria sinensis (protein, listed as Aquilaria sinensis)
chain: MGSQDVAGGALKGVNPGKATILALGKAFPYQLVMQEFLVDGYFKNTSCKDQELKQKLARLCKTTTVKTRYVVMSEEILNKYPELAVEGIPTLKQRLDIGNEALTEMAIEASQACIKKWGRPASEITHLVYVSSSEARLPGGDLYLAQGLGLSPRTKRVVLYFMGCSGGVAGLRVAKDIAENNPGSRVLLATSETTIVGFKPPSAHRPYDLVGVALFGDGAGAMVIGSDPLPGTESPLFELHTAIQNFLPNTEKTIDGRLTEEGISFKLARELPQIVEDHIEGFCGQLTGVIGLSHKQYNKMFWAVHPGGPAILNRVEKRLDLHPNKLDASRRALEDYGNASSNSIVYVLDYMIEETLKMKTESLEPSEWGLILAFGPGVTFEGILARNLAV
B7: SEQ ID NO: 133: plant type III polyketide synthase (PKS) (protein, listed as Rheum tataricum)
chain: MAPEESRHAETAVNRAATVLAIGTANPPNCYYQADFPDFYFRATNSDHLTHLKQKFKRICEKSMIEKRYLHLTEEILKENPNIASFEAPSLDVRHNIQVKEVVLLGKEAALKAINEWGQPKSKITRLIVCCIAGVDMPGADYQLTKLLGLQLSVKRFMFYHLGCYAGGTVLRLAKDIAENNKEARVLIVRSEMTPICFRGPSETHIDSMVGQAIFGDGAAAVIVGANPDLSIERPIFELISTSQTIIPESDGAIEGHLLEVGLSFQLYQTVPSLISNCIETCLSKAFTPLNISDWNSLFWIAHPGGRAILDDIEATVGLKKEKLKATRQVLNDYGNMSSACVFFIMDEMRKKSLANGQVTTGEGLKWGVLFGFGPGVTVETVVLSSVPLIT
B8: SEQ ID NO: 137: plant type III polyketide synthase (PKS) (protein, listed as Piper methysticum)
chain: MSKTVEDRAAQRAKGPATVLAIGTATPANVVYQTDYPDYYFRVTKSEHMTKLKNKFQRMCDRSTIKKRYMVLTEELLEKNLSLCTYMEPSLDARQDILVPEVPKLGKEAADEAIAEWGRPKSEITHLIFCTTCGVDMPGADYQLTKLLGLRSSVRRTMLYQQGCFGGGTVLRLAKDLAENNAGARVLVVCSEITTAVNFRGPSDTHLDLLVGLALFGDGAAAVIVGADPDPTLERPLFQIVSGAQTILPDSEGAINGHLREVGLTIRLLKDVPGLVSMNIEKCLMEAFAPMGIHDWNSIFWIAHPGGPTILDQVEAKLGLKEEKLKSTRAVLREYGNMSSACVLFILDEVRKRSMEEGKTTTGEGFDWGVLFGFGPGFTVETVVLHSMPIPKADEGR
B9: SEQ ID NO: 127: plant type III polyketide synthase (PKS) (protein, listed as Physcomitrella patens)
chain: MSKTVEDRAAQRAKGPATVLAIGTATPANVVYQTDYPDYYFRVTKSEHMTKLKNKFQRMCDRSTIKKRYMVLTEELLEKNLSLCTYMEPSLDARQDILVPEVPKLGKEAADEAIAEWGRPKSEITHLIFCTTCGVDMPGADYQLTKLLGLRSSVRRTMLYQQGCFGGGTVLRLAKDLAENNAGARVLVVCSEITTAVNFRGPSDTHLDLLVGLALFGDGAAAVIVGADPDPTLERPLFQIVSGAQTILPDSEGAINGHLREVGLTIRLLKDVPGLVSMNIEKCLMEAFAPMGIHDWNSIFWIAHPGGPTILDQVEAKLGLKEEKLKSTRAVLREYGNMSSACVLFILDEVRKRSMEEGKTTTGEGFDWGVLFGFGPGFTVETVVLHSMPIPKADEGR
B10: SEQ ID NO: 123: type III polyketide synthase from Arabidopsis thaliana (protein, listed as Arabidopsis thaliana)
chain: MSNSRMNGVEKLSSKSTRRVANAGKATLLALGKAFPSQVVPQENLVEGFLRDTKCDDAFIKEKLEHLCKTTTVKTRYTVLTREILAKYPELTTEGSPTIKQRLEIANEAVVEMALEASLGCIKEWGRPVEDITHIVYVSSSEIRLPGGDLYLSAKLGLRNDVNRVMLYFLGCYGGVTGLRVAKDIAENNPGSRVLLTTSETTILGFRPPNKARPYDLVGAALFGDGAAAVIIGADPRECEAPFMELHYAVQQFLPGTQNVIEGRLTEEGINFKLGRDLPQKIEENIEEFCKKLMGKAGDESMEFNDMFWAVHPGGPAILNRLETKLKLEKEKLESSRRALVDYGNVSSNTILYVMEYMRDELKKKGDAAQEWGLGLAFGPGITFEGLLIRSLTSS

Test system: Pichia pastoris GS115 yeast cells expressing luciferase, hispidin hydroxylase and coumarate-CoA ligase 1
Assay: Screening of PKS for hispidin-synthase activity in yeast colonies sprayed with caffeic acid
Assay type: cell-based
Conditions: colonies sprayed with caffeic acid solution
From the text: The selected nucleotide sequences for expression in Pichia pastoris yeast cells and Nicotiana benthamiana plant cells were optimized. The resulting nucleic acids were obtained synthetically and cloned into pGAPZ vector and used for verifying ability of the expressed proteins to synthesize hispidin.
For this purpose, in genome of Pichia pastoris GS115 yeast line, constitutively expressing Neonothopanus nambi luciferase and hispidin hydroxylase, obtained according to Example 1, there was additionally introduced pGAPZ plasmid, comprising gene of
Arabidopsis thaliana coumarate-CoA ligase 1 (which nucleotide and amino acid sequence are shown in SEQ ID NOs: 140, 141), also obtained by oligonucleotide synthesis. The plasmid was linearized at restriction site AvrII and used for transformation into Pichia pastoris GS115 cells.
The obtained yeast cells, constitutively expressing Neonothopanus nambi luciferase and hispidin hydroxylase and Arabidopsis thaliana coumarate-CoA ligase 1, were […] by plasmids comprising coding PKS sequences, and dispersed in Petri dishes with RDB medium, comprising 1 M of sorbitol, 2% (weight/volume) of glucose, 1.34% (weight/volume) of yeast nitrogen base (YNB), 0.005% (weight/volume) of amino acids mixture, 0.00004% (weight/volume) of biotin and 2% (weight/volume) of agar. To identify enzymes having hispidin-synthase activity, the obtained colonies were sprayed with caffeic acid solution, detecting hispidin-synthase presence in cells by occurrence of luminescence. Luminescence emitted by colonies was detected by means of IVIS Spectrum CT (Perkin Elmer, USA). Yeast line constitutively expressing luciferase, hispidin hydroxylase and coumarate-CoA ligase 1, and also wild yeast cells were used as negative control. […] Amino acid sequences coded by then are shown in SEQ ID NOs: 119, 121, 123, 125, 127, 129, 131, 133, 135, 137, 139 respectively.

Molecule	hispidin-synthase activity	hispidin-synthase activity, comparison among PKS
B1	had hispidin-synthase activity	highest activity
B2	had hispidin-synthase activity	–
B3	had hispidin-synthase activity	–
B4	had hispidin-synthase activity	highest activity
B5	had hispidin-synthase activity	–
B6	had hispidin-synthase activity	highest activity
B7	had hispidin-synthase activity	–
B8	had hispidin-synthase activity	–
B9	had hispidin-synthase activity	–
B10	had hispidin-synthase activity	highest activity
